# Reference: patent publication US20160250307A1
# Molecular target: HLA-A*24 (human)
# Assay: UV-ligand exchange, anti-b2m ELISA; grade: exchange yield >=50%
row,peptide exchange yield,Binder
1,50 to 75%,AFSPDSHYLLF
2,50 to 75%,VFHPRQELI

# Molecular target: HLA-A*24 (human)
# Assay: UV-ligand exchange, anti-b2m ELISA; grade: exchange yield >=75%
row,peptide exchange yield,Binder
1,> 75%,AYLKWISQI
2,> 75%,SYPTFFPRF
3,> 75%,IYPGAFVDL
4,> 75%,VYQGAIRQI
5,> 75%,RYSAGWDAKF
6,> 75%,IYLERFPIF
7,> 75%,VYGLQRNLL
8,> 75%,KFVTVQATF

# The next lines start with the binder.
row,Binder,peptide exchange yield
1,RWPKKSAEF,> 75%
2,SYITKPEKW,> 75%
3,VYGDVISNI,> 75%
4,SYNPAENAVLL,> 75%
5,AYVNTFHNI,> 75%
6,RYAPPPSFSEF,> 75%
7,RYNEKCFKL,> 75%
8,KYPDIISRI,> 75%
9,IYVTSIEQI,> 75%
10,IYIPSYFDF,> 75%
11,AYGTYRSNF,> 75%
12,AYPAIRYLL,> 75%
13,YYGILQEKI,> 75%
14,YYNKVSTVF,> 75%
15,DYIPYVFKL,> 75%
16,IYTGNISSF,> 75%
17,AYLLQPSQF,> 75%
18,IYADVGEEF,> 75%
19,LYWSHPRKF,> 75%
20,KWPETPLLL,> 75%

# Molecular target: HLA-A*02 (human)
# Assay: UV-ligand exchange, anti-b2m ELISA; grade: exchange yield >=50%
row,peptide exchange yield,Binder
1,50 to 75%,ALDSGAFQSV (modifications not checked)
